T1: AbiA (Lactococcus lactis, UniProt Q48596)
T1 construct: full-length, 628 residues, N-terminal His6-tag kept (no SUMO), made in E. coli BL21 Star; plasmid-encoded in the source; homodimer (148 kDa theoretical); co-purifies with covalently attached ssDNA
T1 sequence (Q48596 1-628): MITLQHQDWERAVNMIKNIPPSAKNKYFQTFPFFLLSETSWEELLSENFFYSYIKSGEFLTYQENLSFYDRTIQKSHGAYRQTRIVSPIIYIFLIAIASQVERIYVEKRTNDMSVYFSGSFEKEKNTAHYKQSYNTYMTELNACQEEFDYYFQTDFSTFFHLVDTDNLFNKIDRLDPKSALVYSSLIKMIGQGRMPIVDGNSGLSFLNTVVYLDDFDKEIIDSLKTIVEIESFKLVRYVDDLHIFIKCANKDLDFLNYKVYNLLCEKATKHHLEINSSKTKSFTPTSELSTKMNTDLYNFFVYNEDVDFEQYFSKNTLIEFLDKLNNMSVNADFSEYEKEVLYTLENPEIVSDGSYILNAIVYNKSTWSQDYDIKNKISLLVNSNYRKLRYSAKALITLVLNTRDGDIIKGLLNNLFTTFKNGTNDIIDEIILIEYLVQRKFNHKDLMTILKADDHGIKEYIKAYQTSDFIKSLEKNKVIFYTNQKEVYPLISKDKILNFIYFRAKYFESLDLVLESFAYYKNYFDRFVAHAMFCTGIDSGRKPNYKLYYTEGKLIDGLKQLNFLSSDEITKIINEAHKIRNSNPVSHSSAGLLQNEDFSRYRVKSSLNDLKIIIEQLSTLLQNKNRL


Key:
AbiA = molecular target: T1, AbiA; experiment: extension of […]-labelled co-purified covalently attached DNA, urea-PAGE autoradiography; assay type: biochemical; conditions: 200 uM single dNTP, 50 mM Tris pH 7.0, 250 mM NaCl, 10 mM MgCl2, 5 mM DTT, 37 C; DNA pre-labelled with alpha-33P-dATP; template-independent, protein-primed
[1] = molecular target: the molecule itself; experiment: SEC-MALS; Superdex 200 Increase 10/300 GL; 25 mM Tris pH 7.0, 400 mM NaCl, 2% glycerol, 1 mM DTT; 0.75 ml/min; self-association of AbiA variants
[2] = molecular target: the molecule itself; experiment: SEC-MALS; GF/MALS of tryptophan substitution variants of the dimer interface; data not shown

Molecule | stoichiometry N [2] | further results
Nc1ncnc2c1ncn2[C@H]1C[C@H](O)[C@@H](COP(=O)(O)OP(=O)(O)OP(=O)(O)O)O1 [dATP] | – | extension of 33P-labelled co-purified covalently attached DNA, urea-PAGE autorad (AbiA): dATP and dCTP were incorporated with efficiencies similar to those observed with dNTP mix
Nc1ccn([C@H]2C[C@H](O)[C@@H](COP(=O)(O)OP(=O)(O)OP(=O)(O)O)O2)c(=O)n1 [dCTP] | – | extension of 33P-labelled co-purified covalently attached DNA, urea-PAGE autorad (AbiA): dATP and dCTP were incorporated with efficiencies similar to those observed with dNTP mix
His6-SUMO-AbiA fusion protein (full-length AbiA from L. lactis with uncleaved SUMO tag) (enzyme, UniProt Q48596 1-628, looked up, co-purified ssDNA; the paper shows covalent attachment, with priming at Tyr298 or Tyr303, on the His-tagged protein; 5-9 nt visible in the structure, AbiA, plasmid-encoded abortive infection RT-like polymerase of Lactococcus lactis, full length, 628 amino acid residues; synthetic gene in pET28a-SUMO; The SUMO tag is not visible in the structure; also called full-length SUMO-tagged AbiA; AbiA with an uncleaved SUMO tag; source: E. coli BL21 STAR, purified (HisTrap HP, Superdex 200); not shown: His6, N-terminal, kept; SUMO, N-terminal, kept) MITLQHQDWERAVNMIKNIPPSAKNKYFQTFPFFLLSETSWEELLSENFFYSYIKSGEFLTYQENLSFYDRTIQKSHGAYRQTRIVSPIIYIFLIAIASQVERIYVEKRTNDMSVYFSGSFEKEKNTAHYKQSYNTYMTELNACQEEFDYYFQTDFSTFFHLVDTDNLFNKIDRLDPKSALVYSSLIKMIGQGRMPIVDGNSGLSFLNTVVYLDDFDKEIIDSLKTIVEIESFKLVRYVDDLHIFIKCANKDLDFLNYKVYNLLCEKATKHHLEINSSKTKSFTPTSELSTKMNTDLYNFFVYNEDVDFEQYFSKNTLIEFLDKLNNMSVNADFSEYEKEVLYTLENPEIVSDGSYILNAIVYNKSTWSQDYDIKNKISLLVNSNYRKLRYSAKALITLVLNTRDGDIIKGLLNNLFTTFKNGTNDIIDEIILIEYLVQRKFNHKDLMTILKADDHGIKEYIKAYQTSDFIKSLEKNKVIFYTNQKEVYPLISKDKILNFIYFRAKYFESLDLVLESFAYYKNYFDRFVAHAMFCTGIDSGRKPNYKLYYTEGKLIDGLKQLNFLSSDEITKIINEAHKIRNSNPVSHSSAGLLQNEDFSRYRVKSSLNDLKIIIEQLSTLLQNKNRL | – | stoichiometry N [1]: 2
AbiA Y80W/T269W/L515W (enzyme, L. lactis, UniProt Q48596 1-628, looked up, AbiA of Lactococcus lactis, 628 residues, with tryptophan substitutions in the dimer interface; The methods say point substitutions were introduced into the N-terminal His6-tag construct; Expression and purification of this variant are not described separately) MITLQHQDWERAVNMIKNIPPSAKNKYFQTFPFFLLSETSWEELLSENFFYSYIKSGEFLTYQENLSFYDRTIQKSHGAWRQTRIVSPIIYIFLIAIASQVERIYVEKRTNDMSVYFSGSFEKEKNTAHYKQSYNTYMTELNACQEEFDYYFQTDFSTFFHLVDTDNLFNKIDRLDPKSALVYSSLIKMIGQGRMPIVDGNSGLSFLNTVVYLDDFDKEIIDSLKTIVEIESFKLVRYVDDLHIFIKCANKDLDFLNYKVYNLLCEKAWKHHLEINSSKTKSFTPTSELSTKMNTDLYNFFVYNEDVDFEQYFSKNTLIEFLDKLNNMSVNADFSEYEKEVLYTLENPEIVSDGSYILNAIVYNKSTWSQDYDIKNKISLLVNSNYRKLRYSAKALITLVLNTRDGDIIKGLLNNLFTTFKNGTNDIIDEIILIEYLVQRKFNHKDLMTILKADDHGIKEYIKAYQTSDFIKSLEKNKVIFYTNQKEVYPLISKDKILNFIYFRAKYFESLDLVWESFAYYKNYFDRFVAHAMFCTGIDSGRKPNYKLYYTEGKLIDGLKQLNFLSSDEITKIINEAHKIRNSNPVSHSSAGLLQNEDFSRYRVKSSLNDLKIIIEQLSTLLQNKNRL | 2 | –
AbiA L515W (enzyme, L. lactis, UniProt Q48596 1-628, looked up, AbiA of Lactococcus lactis, 628 residues, with a tryptophan substitution in the dimer interface; The methods say point substitutions were introduced into the N-terminal His6-tag construct; Expression and purification of this variant are not described separately) MITLQHQDWERAVNMIKNIPPSAKNKYFQTFPFFLLSETSWEELLSENFFYSYIKSGEFLTYQENLSFYDRTIQKSHGAYRQTRIVSPIIYIFLIAIASQVERIYVEKRTNDMSVYFSGSFEKEKNTAHYKQSYNTYMTELNACQEEFDYYFQTDFSTFFHLVDTDNLFNKIDRLDPKSALVYSSLIKMIGQGRMPIVDGNSGLSFLNTVVYLDDFDKEIIDSLKTIVEIESFKLVRYVDDLHIFIKCANKDLDFLNYKVYNLLCEKATKHHLEINSSKTKSFTPTSELSTKMNTDLYNFFVYNEDVDFEQYFSKNTLIEFLDKLNNMSVNADFSEYEKEVLYTLENPEIVSDGSYILNAIVYNKSTWSQDYDIKNKISLLVNSNYRKLRYSAKALITLVLNTRDGDIIKGLLNNLFTTFKNGTNDIIDEIILIEYLVQRKFNHKDLMTILKADDHGIKEYIKAYQTSDFIKSLEKNKVIFYTNQKEVYPLISKDKILNFIYFRAKYFESLDLVWESFAYYKNYFDRFVAHAMFCTGIDSGRKPNYKLYYTEGKLIDGLKQLNFLSSDEITKIINEAHKIRNSNPVSHSSAGLLQNEDFSRYRVKSSLNDLKIIIEQLSTLLQNKNRL | 2 | –
AbiA L162W/R601A (enzyme, L. lactis, UniProt Q48596 1-628, looked up, AbiA of Lactococcus lactis, 628 residues, with substitutions in the dimer interface; The methods say point substitutions were introduced into the N-terminal His6-tag construct; Expression and purification of this variant are not described separately) MITLQHQDWERAVNMIKNIPPSAKNKYFQTFPFFLLSETSWEELLSENFFYSYIKSGEFLTYQENLSFYDRTIQKSHGAYRQTRIVSPIIYIFLIAIASQVERIYVEKRTNDMSVYFSGSFEKEKNTAHYKQSYNTYMTELNACQEEFDYYFQTDFSTFFHWVDTDNLFNKIDRLDPKSALVYSSLIKMIGQGRMPIVDGNSGLSFLNTVVYLDDFDKEIIDSLKTIVEIESFKLVRYVDDLHIFIKCANKDLDFLNYKVYNLLCEKATKHHLEINSSKTKSFTPTSELSTKMNTDLYNFFVYNEDVDFEQYFSKNTLIEFLDKLNNMSVNADFSEYEKEVLYTLENPEIVSDGSYILNAIVYNKSTWSQDYDIKNKISLLVNSNYRKLRYSAKALITLVLNTRDGDIIKGLLNNLFTTFKNGTNDIIDEIILIEYLVQRKFNHKDLMTILKADDHGIKEYIKAYQTSDFIKSLEKNKVIFYTNQKEVYPLISKDKILNFIYFRAKYFESLDLVLESFAYYKNYFDRFVAHAMFCTGIDSGRKPNYKLYYTEGKLIDGLKQLNFLSSDEITKIINEAHKIRNSNPVSHSSAGLLQNEDFSAYRVKSSLNDLKIIIEQLSTLLQNKNRL | 2 | –
full-length untagged AbiA (enzyme, L. lactis, UniProt Q48596 1-628, looked up, co-purified ssDNA covalently attached (priming at Tyr298 or Tyr303), AbiA, plasmid-encoded abortive infection RT-like polymerase of Lactococcus lactis, full length, 628 amino acid residues; The results call it 'untagged'; The only SUMO-free construct in the methods carries an N-terminal His6-tag, and the SUMO tag could not be cleaved, so this is probably His6-AbiA; also called AbiA without SUMO tag; AbiA without a tag; source: E. coli BL21 STAR, purified (HisTrap …)) MITLQHQDWERAVNMIKNIPPSAKNKYFQTFPFFLLSETSWEELLSENFFYSYIKSGEFLTYQENLSFYDRTIQKSHGAYRQTRIVSPIIYIFLIAIASQVERIYVEKRTNDMSVYFSGSFEKEKNTAHYKQSYNTYMTELNACQEEFDYYFQTDFSTFFHLVDTDNLFNKIDRLDPKSALVYSSLIKMIGQGRMPIVDGNSGLSFLNTVVYLDDFDKEIIDSLKTIVEIESFKLVRYVDDLHIFIKCANKDLDFLNYKVYNLLCEKATKHHLEINSSKTKSFTPTSELSTKMNTDLYNFFVYNEDVDFEQYFSKNTLIEFLDKLNNMSVNADFSEYEKEVLYTLENPEIVSDGSYILNAIVYNKSTWSQDYDIKNKISLLVNSNYRKLRYSAKALITLVLNTRDGDIIKGLLNNLFTTFKNGTNDIIDEIILIEYLVQRKFNHKDLMTILKADDHGIKEYIKAYQTSDFIKSLEKNKVIFYTNQKEVYPLISKDKILNFIYFRAKYFESLDLVLESFAYYKNYFDRFVAHAMFCTGIDSGRKPNYKLYYTEGKLIDGLKQLNFLSSDEITKIINEAHKIRNSNPVSHSSAGLLQNEDFSRYRVKSSLNDLKIIIEQLSTLLQNKNRL | – | stoichiometry N [1]: 2
AbiA Y80W/T269W (enzyme, L. lactis, UniProt Q48596 1-628, looked up, AbiA of Lactococcus lactis, 628 residues, with tryptophan substitutions in the dimer interface; The methods say point substitutions were introduced into the N-terminal His6-tag construct; Expression and purification of this variant are not described separately) MITLQHQDWERAVNMIKNIPPSAKNKYFQTFPFFLLSETSWEELLSENFFYSYIKSGEFLTYQENLSFYDRTIQKSHGAWRQTRIVSPIIYIFLIAIASQVERIYVEKRTNDMSVYFSGSFEKEKNTAHYKQSYNTYMTELNACQEEFDYYFQTDFSTFFHLVDTDNLFNKIDRLDPKSALVYSSLIKMIGQGRMPIVDGNSGLSFLNTVVYLDDFDKEIIDSLKTIVEIESFKLVRYVDDLHIFIKCANKDLDFLNYKVYNLLCEKAWKHHLEINSSKTKSFTPTSELSTKMNTDLYNFFVYNEDVDFEQYFSKNTLIEFLDKLNNMSVNADFSEYEKEVLYTLENPEIVSDGSYILNAIVYNKSTWSQDYDIKNKISLLVNSNYRKLRYSAKALITLVLNTRDGDIIKGLLNNLFTTFKNGTNDIIDEIILIEYLVQRKFNHKDLMTILKADDHGIKEYIKAYQTSDFIKSLEKNKVIFYTNQKEVYPLISKDKILNFIYFRAKYFESLDLVLESFAYYKNYFDRFVAHAMFCTGIDSGRKPNYKLYYTEGKLIDGLKQLNFLSSDEITKIINEAHKIRNSNPVSHSSAGLLQNEDFSRYRVKSSLNDLKIIIEQLSTLLQNKNRL | 2 | –
